Earlier results, collected in paper PMC5751705.
pKd: −log10 of the molar value.

Tests used:
[1] = target: YopB (Yersinia pestis) (UniProt Q06114)
[2] = target: substance P (Homo sapiens) (UniProt P20366)
substance P (Homo sapiens), sequence (P20366 whole entry, looked up): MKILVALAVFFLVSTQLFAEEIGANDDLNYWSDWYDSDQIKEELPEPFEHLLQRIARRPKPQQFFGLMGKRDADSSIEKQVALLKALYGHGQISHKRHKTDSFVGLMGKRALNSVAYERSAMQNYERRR

NK1R, sequence (P25103 whole entry): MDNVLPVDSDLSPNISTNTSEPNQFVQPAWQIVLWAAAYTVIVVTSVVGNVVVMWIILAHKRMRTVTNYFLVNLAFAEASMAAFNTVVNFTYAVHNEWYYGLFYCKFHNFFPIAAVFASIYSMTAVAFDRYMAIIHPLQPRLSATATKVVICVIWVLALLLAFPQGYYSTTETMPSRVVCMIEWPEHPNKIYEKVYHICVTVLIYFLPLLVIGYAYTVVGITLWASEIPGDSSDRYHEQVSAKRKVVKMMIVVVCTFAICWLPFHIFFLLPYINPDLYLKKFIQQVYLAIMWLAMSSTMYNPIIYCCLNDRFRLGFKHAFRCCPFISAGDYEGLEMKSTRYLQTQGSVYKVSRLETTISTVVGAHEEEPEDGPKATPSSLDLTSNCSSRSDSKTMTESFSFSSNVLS
LcrV, sequence (P0C7U7 whole entry): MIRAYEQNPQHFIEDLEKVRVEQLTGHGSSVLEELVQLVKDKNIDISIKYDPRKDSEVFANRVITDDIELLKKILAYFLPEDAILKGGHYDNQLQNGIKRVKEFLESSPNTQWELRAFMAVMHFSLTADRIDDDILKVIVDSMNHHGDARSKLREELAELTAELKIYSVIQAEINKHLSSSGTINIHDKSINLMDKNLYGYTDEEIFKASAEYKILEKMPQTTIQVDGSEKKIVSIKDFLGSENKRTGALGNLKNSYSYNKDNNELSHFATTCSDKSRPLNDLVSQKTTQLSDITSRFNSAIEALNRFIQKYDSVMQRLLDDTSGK
YopB (Yersinia pestis), sequence (Q06114 whole entry): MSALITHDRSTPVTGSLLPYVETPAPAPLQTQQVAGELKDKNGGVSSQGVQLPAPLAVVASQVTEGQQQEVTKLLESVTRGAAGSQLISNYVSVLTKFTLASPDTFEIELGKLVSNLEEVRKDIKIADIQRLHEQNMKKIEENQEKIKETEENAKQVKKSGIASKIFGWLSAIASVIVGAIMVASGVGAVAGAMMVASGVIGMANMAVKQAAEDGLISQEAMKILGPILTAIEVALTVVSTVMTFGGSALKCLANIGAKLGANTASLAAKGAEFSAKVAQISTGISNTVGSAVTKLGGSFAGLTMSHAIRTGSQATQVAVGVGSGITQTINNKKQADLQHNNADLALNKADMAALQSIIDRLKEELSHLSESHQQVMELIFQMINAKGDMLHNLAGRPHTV

Substance | pKd [1] | pKd [2]
LcrV (from UniProt P0C7U7) | 7.69 | –
NK1R (from UniProt P25103) | – | 7.08
